Reference: the Human Domainome abundance scans (Beltran et al. 2025)

B1: Advillin, residues 785 to 819; numbered along this chain, O75366 (parent)
chain: LSEQDFVSVFGITRGQFAALPGWKQLQMKKEKGLF

Variants of: B1
Assay: abundance fitness (aPCA) (normalised: wild type 0, dead -1); higher = more abundant; growth selection in yeast, the domain comes from the species named
Settings: Homo sapiens

Abundance fitness: each site, then its substitutions
K30: H -0.121, N 0.04, T -0.215, G -0.159, R 0.033, S -0.114, A 0.078, Q 0.026, I -0.266, M 0.051, V -0.076, P -0.453, C -0.321, F -0.345, E 0.147, L -0.192
Q25: A -0.525, L -0.456, T -0.405, E -0.593, N -0.407, R -0.187, V -0.604, W -1.4, C -0.846, K -0.31, S -0.735, G -0.568, M -0.507
A19: I -0.5, L -0.137, G -0.114, N -0.052, T -0.254, C -0.209, P -0.749, H -0.119, W -0.654, Y -0.409, E 0.021, M -0.174, D -0.068, S -0.068, Q -0.367, F -0.245
L20: F -0.832, R -0.563, M -0.211, A -0.593, H -0.487, Q -0.368, E -0.404, S -0.328, C -0.847, G -0.408, T -0.424, Y -0.106, I -0.902, W -0.91, P -0.759, V -0.753, D -0.113, N -0.248, K -0.639
Q27: C -0.432, D -0.3, F -0.416, G -0.333, V -0.139, M -0.293, T -0.459, W -0.37, S -0.183, R -0.186, K -0.064, L -0.297, A -0.125, H 0.108, E 0.098, P -0.589
E31: C -0.443, G -0.283, D 0.02, I -0.421, T -0.645, M -0.453, H -0.563, L -0.42, R -0.464, V -0.367, K -0.271, W -0.709, A -0.173, P -0.645, Y -0.746
Q16: P -0.355, D -0.347, S -0.211, W -0.626, F -0.302, C -0.43, I -0.396, E -0.053, R -0.281, Y -0.252, G -0.378, M -0.279, H -0.183, T -0.192, V -0.422, L -0.382
G15: N -0.05, A 0.16, S 0.203, K 0.15, Q 0.11, F -0.193, I 0.042, C -0.152, R -0.089, W -0.395, H 0.008, L -0.215, V -0.077, P -0.413, E 0.238, D 0.009, T -0.052
G33: K -0.325, E -0.032, A -0.195
T13: K -0.314, D -0.265, F -0.368, L -0.619, S -0.199, C -0.255, P -0.219, Y -0.017, A -0.397, M -0.369, N -0.26, V -0.53, E -0.101, I -0.475, Q -0.871, G -0.382
F17: A -0.389, L -0.476, C -0.435, Y -0.969, E -0.33, V -0.396, R -0.554, G -0.37, M -0.249, P -0.631, Q -0.344, S -0.454, K -0.479, W -0.441, I -0.538, T -0.486, H -0.965
I12: Y -0.306, V -0.089, W -0.999
